Article PMC5652782

Biological target: eIF4E (UniProt P63074)
Assay: anti-eIF4E IP, anti-histidine blot
Conditions: reference: wild type Hsp27; sites S15,S78,S82

binding against the reference: weaker
Substance: Hsp27 (from UniProt P04792) 3A (S15A/S78A/S82A)
